Measured values: EP4631972A1, “SITE-SPECIFIC COUPLED PEGYLATED INTERLEUKIN-2 MUTANT WITH RECEPTOR AFFINITY PREFERENCE AND USE THEREOF” (priority 2022, dated 2024)
Read-outs that look alike come from different tables or passages of the source. Numbered stars: 1 amine (or outer) side, 2 acyl side, 3 side chain; on linkers, the order of the positions; unused ones are H or OH. Square brackets hold non-standard residues; d marks the D form. Side chains are listed from the residue outwards. Prk = N-ε-propargyloxycarbonyl-L-lysine, C#CCOC(=O)NCCCC[C@H](N[*:1])C(=O)[*:2]; maleimide = maleimide group on PEG that conjugates to a cysteine thiol

Legend:
Treg cells = test: P-STAT5 activation in Treg cells of human PBMCs (flow cytometry); assay type: cell-based; details: P-STAT5 MFI in CD3+/CD4+/CD25+ cells of human PBMCs, 30 min stimulation
Description: In the example, the activation effect of each mutant prepared in Example 6 on P-STAT5 in different cell subsets (Tregs, CD8+T cells, NK cells) from human PBMCs (Miaoshun Biotechnology) was detected.
Human PBMC cells were thawed and resuspended to 1.5×10^6 cells/ml in RPMI1640 medium containing 10% FBS. 100 µl was added to each well of a V-bottom 96-well culture plate. Each IL-2 mutant prepared in Example 6 was diluted 10-fold in series: 1000 nM was used as the working concentration for the first well, and then 100 µl/well of each serial dilution was added to each cultured cell, stimulated at 37°C for 30 min, and the reaction was terminated on ice. The cells were treated with a commercial fixative and permeabilization agent (BD biosciences 558049 & 558050), and stained with antibodies against CD3, CD4, CD25, and CD8 according to conventional methods. P-STAT5 antibody staining was also performed (Table 7) to detect the mean fluorescence intensity (MFI) of P-STAT5 in CD3+/CD4+/CD25+ (Treg cells) and CD8+/CD3+ cells ([…]) by flow cytometry.

[1] = Pharmacokinetic study in mice, single administration, plasma concentration by ELISA; details: 1 mg/kg s.c. single administration
Description: Balb/c mice were purchased, with 4 mice in each group. Each IL-2 mutant to be tested was administered subcutaneously once at a dose of 1 mg/kg. Blood was collected from the orbit at different time points after administration, and the plasma was separated and the plasma drug concentration was detected by ELISA. The main pharmacokinetic parameters were calculated, and C-T curve was plotted.

[2] = Effects on body weight and physiological characteristics of mice; details: 1 mg/kg s.c. once every three days, three times
Description: SPF grade Balb/c mice were purchased, with 3 mice in each group. Administration was started on the day of grouping. The test substance or PBS (negative control group) was administered subcutaneously at a dose of 1 mg/kg, once every three days, for a total of three times. The mice were weighed before each administration and three days after the third administration .

IL-2Rαβγ triple receptor [3] = biological target: T1, IL-2Rαβγ triple receptor (UniProt P01589 22-272; P14784 27-551; P31785 23-369); test: cell-based or functional assay
T1 sequence (looked up) 1: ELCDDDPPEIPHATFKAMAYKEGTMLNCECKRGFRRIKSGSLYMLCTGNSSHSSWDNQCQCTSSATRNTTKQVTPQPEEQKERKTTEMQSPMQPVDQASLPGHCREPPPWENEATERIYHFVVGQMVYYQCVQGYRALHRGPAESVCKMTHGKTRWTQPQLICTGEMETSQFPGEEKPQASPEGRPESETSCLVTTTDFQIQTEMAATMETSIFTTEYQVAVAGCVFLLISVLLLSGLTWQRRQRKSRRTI
T1 sequence (looked up) 2: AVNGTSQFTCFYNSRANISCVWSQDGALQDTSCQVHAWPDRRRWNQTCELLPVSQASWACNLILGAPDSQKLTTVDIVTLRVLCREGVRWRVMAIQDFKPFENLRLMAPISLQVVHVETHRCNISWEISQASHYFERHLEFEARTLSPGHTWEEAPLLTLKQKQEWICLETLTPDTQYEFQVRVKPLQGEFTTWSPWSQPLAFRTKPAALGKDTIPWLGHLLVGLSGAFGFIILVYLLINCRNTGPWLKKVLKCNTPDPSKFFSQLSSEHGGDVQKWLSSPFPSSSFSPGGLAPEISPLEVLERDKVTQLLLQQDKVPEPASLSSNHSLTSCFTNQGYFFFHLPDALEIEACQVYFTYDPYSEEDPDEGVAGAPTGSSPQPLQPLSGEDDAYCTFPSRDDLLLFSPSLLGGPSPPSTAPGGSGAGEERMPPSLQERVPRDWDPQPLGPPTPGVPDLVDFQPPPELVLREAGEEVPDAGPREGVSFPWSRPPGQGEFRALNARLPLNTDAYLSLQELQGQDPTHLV
T1 sequence (looked up) 3: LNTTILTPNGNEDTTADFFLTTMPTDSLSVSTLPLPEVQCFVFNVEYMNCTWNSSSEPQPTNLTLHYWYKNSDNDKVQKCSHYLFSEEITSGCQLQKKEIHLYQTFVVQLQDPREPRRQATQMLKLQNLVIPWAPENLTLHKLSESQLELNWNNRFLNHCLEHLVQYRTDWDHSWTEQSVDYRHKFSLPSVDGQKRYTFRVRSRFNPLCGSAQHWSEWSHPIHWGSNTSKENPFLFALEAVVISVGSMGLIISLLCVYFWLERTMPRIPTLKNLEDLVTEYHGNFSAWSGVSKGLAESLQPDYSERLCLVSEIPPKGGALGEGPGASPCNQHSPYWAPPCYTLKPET

IL-2Rαβγ triple receptor [4] = biological target: T1, IL-2Rαβγ triple receptor; test: cell-based or functional assay; remark: listed apart in the source
IL-2Rαβγ triple receptor [5] = biological target: T1, IL-2Rαβγ triple receptor; test: cell-based or functional assay; remark: listed apart in the source
IL-2Rαβγ triple receptor [6] = biological target: T1, IL-2Rαβγ triple receptor; test: cell-based or functional assay; remark: listed apart in the source

40K-1PEG-IL2-N88R-N77C: IL2-N88R-N77C with 40 kDa PEG conjugated to the cysteine at position 77
EC50 (Treg cells): 38000 pM | AUC inf [1]: 307.71336 ± 53.89144 µg·h/mL | AUClast [1]: 306.70767 ± 53.98797 µg·h/mL | CL [1]: 3.32±0.5 | Cmax [1]: 6581.76 ± 1168.04 ng/mL | MRT [1]: 31.57 ± 1.16 h | T1/2 [1]: 11.33 ± 0.97 h | Tmax [1]: 8 to 24 h

80K-1PEG-IL2-N88R-D109C: IL-2 mutant N88R, D109C, conjugation site 109, PEG molecular weight 80kD
toxic side effects on mice [2]: relatively obvious toxic side effects | visual observation of the mice [2]: listless, had poor motility | body weight compared with negative control ([2]; three days after the third dose): significantly lower than that of the negative control

rh IL-2 (from UniProt P60568 21-153) (ligand)
Activation of IL-2αβγ receptor EC50 (STAT5 luciferase reporter gene assay) (IL-2Rαβγ triple receptor [3]): 8.48 pM | Activation of IL-2αβγ triple receptor EC50 (STAT5 luciferase reporter gene assay) (IL-2Rαβγ triple receptor [3]): 4.11 pM | EC50 for activation of the IL-2αβγ triple receptor (STAT5 luciferase reporter gene assay) (IL-2Rαβγ triple receptor [3]): 5.43 pM

B1: 20k-1PEG-IL2-N88R-N77Prk (ligand)
chain: APTSSSTKKTQLQLEHLLLDLQMILNGINNYKNPKLTRMLTFKFYMPKKATELKHLQCLEEELKPLEEVLNLAQSK[Prk](PEG‑azide 20 kDa)FHLRPRDLISRINVIVLELKGSETTFMCEYADETATIVEFLNRWITFSQSIISTLT
Activation of IL-2αβγ receptor EC50 (STAT5 luciferase reporter gene assay) (IL-2Rαβγ triple receptor [4]): 361 pM

B2: 40k-1PEG-IL2-N88R-N77Prk (ligand)
chain: APTSSSTKKTQLQLEHLLLDLQMILNGINNYKNPKLTRMLTFKFYMPKKATELKHLQCLEEELKPLEEVLNLAQSK[Prk](PEG‑azide 40 kDa)FHLRPRDLISRINVIVLELKGSETTFMCEYADETATIVEFLNRWITFSQSIISTLT
Activation of IL-2αβγ receptor EC50 (STAT5 luciferase reporter gene assay) (IL-2Rαβγ triple receptor [4]): 517 pM

B3: 20K-1PEG-IL2-N88R-N77C: IL-2 mutant N88R, N77C, conjugation site 77, PEG molecular weight 20kD (conjugate)
chain: APTSSSTKKTQLQLEHLLLDLQMILNGINNYKNPKLTRMLTFKFYMPKKATELKHLQCLEEELKPLEEVLNLAQSKC(PEG 20 kDa)FHLRPRDLISRINVIVLELKGSETTFMCEYADETATIVEFLNRWITFSQSIISTLT
EC50 (Treg cells): 6140 pM | AUC inf [1]: 22.88236 ± 3.52254 µg·h/mL | AUClast [1]: 21.76228 ± 3.58639 µg·h/mL | CL [1]: 44.4±6.99 | Cmax [1]: 1276.71 ± 273.3 ng/mL | MRT [1]: 11.68 ± 0.08 h | T1/2 [1]: 7.62 ± 0.57 h | Tmax [1]: 4 to 8 h

B4: 80K-1PEG-IL2-N88R-N77C (ligand)
chain: APTSSSTKKTQLQLEHLLLDLQMILNGINNYKNPKLTRMLTFKFYMPKKATELKHLQCLEEELKPLEEVLNLAQSKC(PEG 80 kDa)FHLRPRDLISRINVIVLELKGSETTFMCEYADETATIVEFLNRWITFSQSIISTLT
EC50 for activation of the IL-2αβγ triple receptor (STAT5 luciferase reporter gene assay, 293EC18/αβγ/JAK3/STAT5 cells) (IL-2Rαβγ triple receptor [5]): 184 pM | EC50 for activation of the IL-2αβγ triple receptor (STAT5 luciferase reporter gene assay) (IL-2Rαβγ triple receptor [6]): 246 pM

B5: 80k-1PEG-IL2-N88R-N33C (ligand)
chain: APTSSSTKKTQLQLEHLLLDLQMILNGINNYKC(PEG 80 kDa)PKLTRMLTFKFYMPKKATELKHLQCLEEELKPLEEVLNLAQSKNFHLRPRDLISRINVIVLELKGSETTFMCEYADETATIVEFLNRWITFSQSIISTLT
EC50 for activation of the IL-2αβγ triple receptor (STAT5 luciferase reporter gene assay, 293EC18/αβγ/JAK3/STAT5 cells) (IL-2Rαβγ triple receptor [5]): 3.86 pM

B6: 20K-1PEG-IL2-N88R-D109C (ligand)
chain: APTSSSTKKTQLQLEHLLLDLQMILNGINNYKNPKLTRMLTFKFYMPKKATELKHLQCLEEELKPLEEVLNLAQSKNFHLRPRDLISXINVIVLELKGSETTFMCEYAXETATIVEFLNRWITFSQSIISTLT
modifications: not fully specified; one 20 kD PEG-maleimide conjugated to Cys 109
EC50 for activation of the IL-2αβγ triple receptor (STAT5 luciferase reporter gene assay) (IL-2Rαβγ triple receptor [6]): 78.6 pM

B7: 80K-1PEG-IL2-N88R-D109C (ligand)
chain: APTSSSTKKTQLQLEHLLLDLQMILNGINNYKNPKLTRMLTFKFYMPKKATELKHLQCLEEELKPLEEVLNLAQSKNFHLRPRDLISXINVIVLELKGSETTFMCEYAXETATIVEFLNRWITFSQSIISTLT
modifications: one 80 kD PEG-maleimide conjugated to Cys 109
EC50 for activation of the IL-2αβγ triple receptor (STAT5 luciferase reporter gene assay) (IL-2Rαβγ triple receptor [6]): 407 pM

B8: 20K-1PEG-IL2-N88R-N77C (ligand)
chain: APTSSSTKKTQLQLEHLLLDLQMILNGINNYKNPKLTRMLTFKFYMPKKATELKHLQCLEEELKPLEEVLNLAQSKC([maleimide-PEG 20 kDa])FHLRPRDLISRINVIVLELKGSETTFMCEYADETATIVEFLNRWITFSQSIISTLT
modifications: not fully specified
EC50 for activation of the IL-2αβγ triple receptor (STAT5 luciferase reporter gene assay) (IL-2Rαβγ triple receptor [6]): 70.5 pM

B9: 80k-1PEG-IL2-N88R-S75C (ligand)
chain: APTSSSTKKTQLQLEHLLLDLQMILNGINNYKNPKLTRMLTFKFYMPKKATELKHLQCLEEELKPLEEVLNLAQC(PEG 80 kDa)KNFHLRPRDLISRINVIVLELKGSETTFMCEYADETATIVEFLNRWITFSQSIISTLT
EC50 for activation of the IL-2αβγ triple receptor (STAT5 luciferase reporter gene assay, 293EC18/αβγ/JAK3/STAT5 cells) (IL-2Rαβγ triple receptor [5]): 1260 pM

B10: 60k-1PEG-IL2-N88R-N77Prk (ligand)
chain: APTSSSTKKTQLQLEHLLLDLQMILNGINNYKNPKLTRMLTFKFYMPKKATELKHLQCLEEELKPLEEVLNLAQSK[Prk](PEG 60 kDa)FHLRPRDLISRINVIVLELKGSETTFMCEYADETATIVEFLNRWITFSQSIISTLT
Activation of IL-2αβγ receptor EC50 (STAT5 luciferase reporter gene assay) (IL-2Rαβγ triple receptor [4]): 417 pM
